According to paper PMC6057488:
Each block holds one substance with its values, some of them ahead of it.

Legend:
[1] = biological target: DNGR-1 on cDC1s (mouse (endogenous in MutuDC1940 cells and splenic cDC1s)) (UniProt Q8BRU4); assay: flow cytometry on cells; red fluorescent streptavidin beads, uncoated or coated with F-actin or F-actin and myosin II, with GFP-expressing MutuDC1940 cells for 2 hr at 37°C; with isotype control or anti-DNGR-1 antibody 1F6
[2] = biological target: mouse DNGR-1 on B3Z-mDNGR-1-Syk reporter cells (mouse) (UniProt Q8BRU4)

percent of MutuDCs associated with beads [1]: < 50%
Substance: beads coated with biotinylated F-actin and myosin II (from UniProt P68135 1-377; Q28641 1-1938; P02602 1-192; P02608 1-170) (complex)

NFAT β-galactosidase reporter activity of B3Z-mDNGR-1-Syk cells, titration of in vitro polymerized F-actin [2]: > 1 µM
Substance: in vitro polymerized F-actin (from UniProt P68135 1-377) (natural protein)

NFAT β-galactosidase reporter activity of B3Z-mDNGR-1-Syk cells, titration of an equimolar mixture of F-actin and myosin II against F-actin alone [2]: 2 log
Substance: F-actin and myosin II complexes (from UniProt P68135 1-377; Q28641 1-1938; P02602 1-192; P02608 1-170)
